The target in series [1] is T1, CtXrn2 (Xrn2 WT, residues 1-875) (Thermochaetoides thermophila, UniProt G0S058, A5F).
T1 construct: gene CTHT_0008830; Xrn core, residues 1-875, C-terminal tag LEHHHHHH kept, E. coli BL21(DE3) CodonPlus-RIL, 100 kDa, single chain; Ile-delta1/Met methyl-labelled for NMR
Briefly: 1H-13C HMQC methyl-TROSY NMR. Format: binding. The following applies: 313 K; 5 mM MgCl2; 50 uM protein; 500 uM pAp.

Series [2] addresses T2, CtXrn2 (Xrn2 WT, residues 1-875) (Thermochaetoides thermophila, UniProt G0S058).
T2 construct: gene CTHT_0008830; Xrn core, residues 1-875, C-terminal tag LEHHHHHH kept, E. coli BL21(DE3) CodonPlus-RIL, 100 kDa, single chain; Ile-delta1/Met methyl-labelled for NMR
T2 sequence (G0S058 1-875): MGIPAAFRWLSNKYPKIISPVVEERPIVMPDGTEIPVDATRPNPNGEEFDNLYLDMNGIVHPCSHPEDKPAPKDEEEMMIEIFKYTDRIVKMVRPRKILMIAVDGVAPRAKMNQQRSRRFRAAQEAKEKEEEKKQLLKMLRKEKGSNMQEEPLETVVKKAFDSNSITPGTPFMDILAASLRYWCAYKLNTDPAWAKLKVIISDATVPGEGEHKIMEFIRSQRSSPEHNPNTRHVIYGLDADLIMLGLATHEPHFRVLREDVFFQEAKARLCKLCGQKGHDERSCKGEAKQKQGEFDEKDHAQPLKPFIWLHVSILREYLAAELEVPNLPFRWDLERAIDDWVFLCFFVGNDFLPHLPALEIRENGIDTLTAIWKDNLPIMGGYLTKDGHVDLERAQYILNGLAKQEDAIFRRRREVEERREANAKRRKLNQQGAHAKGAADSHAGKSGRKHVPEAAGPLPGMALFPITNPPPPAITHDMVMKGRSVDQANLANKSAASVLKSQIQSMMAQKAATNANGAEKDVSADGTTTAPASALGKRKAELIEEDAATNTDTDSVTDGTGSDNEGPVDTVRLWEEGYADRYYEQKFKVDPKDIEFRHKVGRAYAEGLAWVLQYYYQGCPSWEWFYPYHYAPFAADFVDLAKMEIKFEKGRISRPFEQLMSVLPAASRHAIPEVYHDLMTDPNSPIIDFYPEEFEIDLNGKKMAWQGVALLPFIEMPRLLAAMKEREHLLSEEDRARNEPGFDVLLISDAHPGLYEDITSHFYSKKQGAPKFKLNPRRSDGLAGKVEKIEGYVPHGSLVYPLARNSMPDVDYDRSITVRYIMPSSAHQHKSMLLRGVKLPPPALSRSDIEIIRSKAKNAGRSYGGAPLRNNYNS
In words: 1H-13C HMQC methyl-TROSY NMR chemical shift perturbation. The following applies: 313 K; 5 mM MgCl2; 50 uM protein; 500 uM pAp; around active site. Format: binding.

The target in series [3] is T3, CtXrn2 1-875 (WT) (Chaetomium thermophilum, UniProt G0S058 1-875).
T3 sequence: T2 sequence (G0S058 1-875)
In words: fluorescence anisotropy; no Mg2+, with Zn2+; Fluorescence anisotropy: 25 mM HEPES pH 7.3, 125 mM NaCl, 0.002% Triton, no Mg2+, with Zn2+, temperature not stated (room temperature used for dG); NMR: 25 mM H. The following applies: protein: recombinant; label: fluorescein on 3' thiouridine (6-iodoacetamido-fluorescein); single strand.

A further series concerns the target T4, CtXrn2 deltaZnF (Chaetomium thermophilum, UniProt G0S058 1-875, del263-300).
T4 sequence: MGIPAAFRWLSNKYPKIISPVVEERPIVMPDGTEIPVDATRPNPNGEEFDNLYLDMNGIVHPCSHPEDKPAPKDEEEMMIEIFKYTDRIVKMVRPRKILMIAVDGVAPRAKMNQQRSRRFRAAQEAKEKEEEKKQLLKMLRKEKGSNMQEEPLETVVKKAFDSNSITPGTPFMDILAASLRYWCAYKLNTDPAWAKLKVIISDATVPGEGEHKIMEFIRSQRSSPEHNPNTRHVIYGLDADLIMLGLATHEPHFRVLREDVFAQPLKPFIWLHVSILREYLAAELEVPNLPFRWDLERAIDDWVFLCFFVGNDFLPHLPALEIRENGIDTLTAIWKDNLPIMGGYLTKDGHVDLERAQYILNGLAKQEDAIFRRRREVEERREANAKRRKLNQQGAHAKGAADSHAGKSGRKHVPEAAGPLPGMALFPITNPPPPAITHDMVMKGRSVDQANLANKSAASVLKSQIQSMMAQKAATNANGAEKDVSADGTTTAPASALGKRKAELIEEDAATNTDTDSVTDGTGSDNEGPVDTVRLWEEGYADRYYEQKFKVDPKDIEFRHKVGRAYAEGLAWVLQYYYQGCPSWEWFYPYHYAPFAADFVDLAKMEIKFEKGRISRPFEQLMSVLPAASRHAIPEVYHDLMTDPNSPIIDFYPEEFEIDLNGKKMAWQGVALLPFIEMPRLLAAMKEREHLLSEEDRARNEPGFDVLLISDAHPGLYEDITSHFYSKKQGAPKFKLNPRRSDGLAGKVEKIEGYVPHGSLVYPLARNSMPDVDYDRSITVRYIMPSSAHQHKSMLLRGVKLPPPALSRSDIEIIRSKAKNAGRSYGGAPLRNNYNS
The description is as above. The following applies: protein: recombinant; label: fluorescein on 3' thiouridine (6-iodoacetamido-fluorescein); single strand.

In series [4] the target is T3, CtXrn2 1-875 (WT). Briefly: NMR (methyl-TROSY CSP of M704); no Mg2+; active state not formed; Fluorescence anisotropy: 25 mM HEPES pH 7.3, 125 mM NaCl, 0.002% Triton, no Mg2+, with Zn2+, temperature not stated (room temperature used for dG); NMR: 25 mM H. The following applies: protein: recombinant; single strand.
Series [5] deals with T3, CtXrn2 1-875 (WT). In words: NMR (methyl-TROSY CSP); 5 mM Mg2+; RNA trimmed at 5' end; locked in pre-translocation state; Fluorescence anisotropy: 25 mM HEPES pH 7.3, 125 mM NaCl, 0.002% Triton, no Mg2+, with Zn2+, temperature not stated (room temperature used for dG); NMR: 25 mM H. The following applies: protein: recombinant; pseudoknot with unstructured 5' end.

T1 sequence (G0S058 entry or part of it A5F): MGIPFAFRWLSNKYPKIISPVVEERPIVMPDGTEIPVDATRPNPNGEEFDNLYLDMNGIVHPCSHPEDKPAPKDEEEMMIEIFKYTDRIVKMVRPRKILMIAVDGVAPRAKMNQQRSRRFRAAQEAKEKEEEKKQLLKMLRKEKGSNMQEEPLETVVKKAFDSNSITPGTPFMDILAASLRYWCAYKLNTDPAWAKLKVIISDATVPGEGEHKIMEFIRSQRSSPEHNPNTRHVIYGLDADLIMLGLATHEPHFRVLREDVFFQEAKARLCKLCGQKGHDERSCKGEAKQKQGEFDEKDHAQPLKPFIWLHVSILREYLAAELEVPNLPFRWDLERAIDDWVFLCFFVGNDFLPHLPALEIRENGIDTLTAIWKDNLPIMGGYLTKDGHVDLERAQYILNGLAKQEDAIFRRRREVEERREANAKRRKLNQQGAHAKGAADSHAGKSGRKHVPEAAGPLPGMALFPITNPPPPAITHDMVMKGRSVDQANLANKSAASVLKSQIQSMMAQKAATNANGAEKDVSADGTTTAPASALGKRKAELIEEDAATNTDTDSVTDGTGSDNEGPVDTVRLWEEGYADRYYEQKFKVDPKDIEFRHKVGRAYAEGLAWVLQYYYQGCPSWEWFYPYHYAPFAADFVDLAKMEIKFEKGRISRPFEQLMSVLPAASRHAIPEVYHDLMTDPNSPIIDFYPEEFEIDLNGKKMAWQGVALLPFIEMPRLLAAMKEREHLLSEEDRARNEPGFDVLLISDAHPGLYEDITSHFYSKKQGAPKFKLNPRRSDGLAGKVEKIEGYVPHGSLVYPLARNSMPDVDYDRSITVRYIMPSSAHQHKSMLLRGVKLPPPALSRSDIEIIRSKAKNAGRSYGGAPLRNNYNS

As to `Nc1ncnc2c1ncn2[C@@H]1O[C@H](COP(=O)(O)O)[C@@H](OP(=O)(O)O)[C@H]1O` [pAp], in series [1], the “1H-13C HMQC methyl-TROSY NMR” value was “HMQC spectra of the Xrn2 WT:pAp complex (black) and Xrn2 A5F:pAp complex (orange)”. Further, in series [2], the “1H-13C HMQC methyl-TROSY NMR chemical shift perturbation” value was “The binding of pAp to Xrn2 resulted in substantial chemical shift perturbations”.

B1: 5-mer RNA (ssRNA)
RNA: GGAGU
modifications: 5'-monophosphate; 3'-terminal 4-thiouridine
As for B1, the binding result with CtXrn2 1-875 (WT) [3] is on record as “binds”. In addition, the binding signal in the series with CtXrn2 deltaZnF stood at 1.5 fold Kd increase vs WT.

B2: pdA5 (ssDNA)
DNA: AAAAA
modifications: 5'-phosphate
As for B2, in the series with CtXrn2 1-875 (WT) [4], the binding result was “binds”.

B3: ZIKV xrRNA (structured_RNA)
RNA: GGGAGUGUUGUAAGCACCAAUUUUAGUGUUGUCAGGCCGGCGAAAGUCGCCACAGUUUGGGGAAAGCUGUGCAGCCUGUAACCCCCCCACGAAAGUGGG
modifications: 5'-monophosphate
On to B3, for which the binding result with CtXrn2 1-875 (WT) [5] was “binds”.

B4: 10-mer RNA (ssRNA)
RNA: GGAGGAGAGU
modifications: 5'-monophosphate; 3'-terminal 4-thiouridine
Regarding B4, the binding result with CtXrn2 1-875 (WT) [3] is “binds”. Moreover, the binding signal in the series with CtXrn2 deltaZnF is around 3 fold Kd increase vs WT.

The values above are taken from PMC9512700, “Observation of conformational changes that underlie the catalytic cycle of Xrn2” (Nature Chemical Biology, 2022).
